Laboratory results as given in the supplement of paper PMC10567573.

B1: EPB41L3 (parent)
chain: GSKFRYSGRTQAQTRRASALIDRP

Variants of: B1
Assay: protein stability index of a GFP-peptide fusion (GPS, HEK-293T) (PSI 1-6); higher = more stable
Details: c terminus: a fixed tail appended
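Also: lentivirally expressed fusions sorted by FACS into six bins by GFP to DsRed ratio, PSI derived from sequencing read proportions per bin multiplied by bin number.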

Protein stability index of substitutions, site by site:
S2: M 2.27, N 2.6, D 4.02, E 3.98, C 2.44, W 2.44, T 2.82, Y 2.68, G 3.31, H 2.98, R 2.51, A 2.66, Q 2.77, L 2.33, K 3.56
T10: E 3.01, L 3.1, R 3.62, N 3.19, Q 3.1, Y 2.39, C 1.97, G 3.66, A 2.97, H 3.27, D 3.56, W 1.82, V 2.84, I 2.37
Q11: L 2.5, E 3.29, N 3, V 2.78, K 3.11, Y 2.64, M 1.94, S 2.18, A 2.86, G 3.16, W 1.75, H 2.85
A19: I 3.04, R 3.43, M 3.07, Q 3.22, S 3.41, N 3.4, K 3.39, P 2.68, H 3.26, C 2.74, Y 2.07, W 2.45, T 3.3
L20: N 3.78, S 3.46, K 3.79, W 3.23, D 3.84, A 3.29, P 3.15, F 2.65, Y 3.02, I 3.19, E 3.89, H 3.37, G 3.16, Q 3.79, C 3.12, T 3.62, M 3.59
R5: T 3.59, G 3.8, I 3.07, N 3.23, C 2.67, H 3.1, V 3.2, M 4.43, W 2.62, E 4.08
R15: F 2.44, A 3.25, G 2.81, V 2.99, M 3.21, D 3.2, E 3.57, T 3.58, C 2.06, H 2.97, N 3.68, W 2.45, L 2.64, I 2.66, Y 2.54, S 2.81, Q 2.9, K 2.83, P 3.3
T14: F 2.8, D 3.41, I 2.69, L 2.7, R 3.44, Q 2.81, S 2.67, Y 2.73, G 3.17, N 3.72, A 3.25, W 2.22
Q13: N 3.39, E 3.27, R 3.25, A 2.84, C 2.98, S 3.27, H 2.65, Y 2.46, W 1.97, V 3.53, I 2.9, K 3.19, M 2.47, P 2.69, T 2.73, D 3.08
S18: R 3.08, D 3.52, P 3.73, N 3.25, L 3.01, I 2.7, Y 2.27, K 3.29, M 2.71, G 3.54, W 2.58, E 3.62, Q 3.19, F 2.16
R23: W 2.77, T 2.58, M 2.41, S 3.01, K 2.94, Q 3.12, N 2.67, E 3.32, C 2.89
G1: Y 1.85, W 2.33, D 3.06, F 2.12, H 3.03, M 2.58, S 2.33, R 3.17, P 2.99, K 3.33, I 2.53, A 3.02, L 2.53, E 3.62, T 3.08, C 2.88
A17: S 3.12, N 3.19, G 3.22, W 2.21, T 2.99, L 2.65, E 3.54, F 2.52, V 2.66, D 3.41, H 2.57, M 3.02, R 3.25
I21: H 3.32, N 3.95, W 2.4, G 3.9, T 3.21, K 3.48, C 2.64, A 3.78, V 3.2, M 3.6
D22: F 3.4, H 3.7, Q 3.54, N 2.82, R 3.45, T 3.02, E 3.72, C 2.99, P 3.09, W 2.72, K 2.7, A 2.63
A12: R 3.42, P 3.17, Y 2.89, I 3.07, S 3.41, D 3.37, T 2.93, C 3.32, F 2.04, H 2.82, Q 3.06, G 3.11, L 3.38, V 1.93, M 2.73
K3: Y 1.89, E 2.19, F 2.34, L 2.92, T 2.74, V 2.33, P 2.04, M 2.84, A 2.02, W 2.46, S 2.64, R 2.83, H 2.33
F4: R 4.42, W 2.86, Y 3.56, L 3.95, Q 4.47, P 3.47, K 4.62, V 4.28, S 4.04, A 4.23, D 4.17, I 4, N 4.4, T 4.17, H 3.83, C 3.4
Y6: Q 3.71, K 4.13, M 4.64, F 2.96, I 3.62, T 4.35, N 3.67, A 3.85, D 4, C 3.51, H 3.22, G 3.91, S 3.85, V 3.86, L 3.15, E 4.13
R9: T 3.01, F 2.81, M 2.85, A 2.88, C 2.94, Y 2.4, G 3.32, E 3.53, V 2.85, N 3.7, H 2.93, P 3.87, D 3.52, L 2.92
P24: W 2.32, F 3.05, V 3.05, M 3, K 3.44, D 3.56, C 3.06, A 2.57, H 3.47, R 3.54, Y 2.78, I 2.71, E 3.19, L 2.56
G8: K 3.44, R 4.01, P 3.43, W 2.1, V 3.07, N 3.13, H 2.95, F 2.96, E 3.52, M 3.88, I 2.93, A 3.41, T 4.1, L 3.44
S7: D 3.68, M 3.35, W 2.4, R 3.73, G 3.85, P 3.36, Q 2.86, H 2.94, C 2.1, I 1.95, L 3.08, A 2.91, K 3.79
R16: S 3.08, L 3.11, H 3.32, E 3.34, Q 3.31, G 3.87, N 3.42, V 2.34, Y 2.78, P 3.15, D 3.56, T 3.4, I 2.72, K 2.83, M 2.67, W 2.41, C 2.52
